In patent US20050100554A1 (published 2005):

B1: Human Papillomavirus 1a E1 (other)
chain: MADNKGTENDWFLVEATDCEETLEETSLGDLDNVSCVSDLSDLLDEAPQSQGNSLELFHKQESLESEQELNALKRKLLYSPQARSADETDIASISPRLETISITKQDKKRYRRQLFSQDDSGLELSLLQDETENIDESTQVDQQQKEHTGEVGAAGVNILKASNIRAALLSRFKDTAGVSFTDLTRSYKSNKTCCGDWVLAVWGVRENLIDSVKELLQTHCVYIQLEHAVTEKNRFLFLLVRFKAQKSRETVIKLITTILPVDASYILSEPPKSRSVAAALFWYKRSMSSTVFTWGTTLEWIAQQTLINHQLDSESPFELCKMVQWAYDNGHTEECKIAYYYAVLADEDENARAFLSSNSQAKYVKDCAQMVRHYLRAEMAQMSMSEWIFRKLDNVEGSGNWKEIVRFLRFQEVEFISFMIAFKDLLCGKPKKNCLLIFGPPNTGKSMFCTSLLKLLGGKVISYCNSKSQFWLQPLADAKIGLLDDATKPCWDYMDIYMRNALDGNTICIDLKHRAPQQIKCPPLLITSNIDVKSDTCWMYLHSRISAFKFAHEFPFKDNGDPGFSLTDENWKSFFERFWQQLELSDQEDEGNDGKPQQSLRLTARAANEPI
notes: also called HPV 1a E1; cbe_552975

Key:
TLK2 = biological target: T1, TLK2 (human, UniProt Q86UE8 1-772, limits assumed); test: Y2H; INT ID 584
T1 construct: Y2H Gal4 fusion; also called cbe_4269167

NDUFAB1 = biological target: T2, NDUFAB1 (human, UniProt O14561 69-156); test: Y2H; INT ID 587
T2 construct: also called cbe_4269931

ANXA2 = biological target: T3, ANXA2 (human, UniProt P07355 2-339); test: Y2H; INT ID 426
T3 construct: also called cbe_4267867

hexokinase 1 = biological target: T4, hexokinase 1 (human, UniProt P19367 22-917); test: Y2H; INT ID 425
T4 construct: also called HK1; cbe_3665307
T4 sequence: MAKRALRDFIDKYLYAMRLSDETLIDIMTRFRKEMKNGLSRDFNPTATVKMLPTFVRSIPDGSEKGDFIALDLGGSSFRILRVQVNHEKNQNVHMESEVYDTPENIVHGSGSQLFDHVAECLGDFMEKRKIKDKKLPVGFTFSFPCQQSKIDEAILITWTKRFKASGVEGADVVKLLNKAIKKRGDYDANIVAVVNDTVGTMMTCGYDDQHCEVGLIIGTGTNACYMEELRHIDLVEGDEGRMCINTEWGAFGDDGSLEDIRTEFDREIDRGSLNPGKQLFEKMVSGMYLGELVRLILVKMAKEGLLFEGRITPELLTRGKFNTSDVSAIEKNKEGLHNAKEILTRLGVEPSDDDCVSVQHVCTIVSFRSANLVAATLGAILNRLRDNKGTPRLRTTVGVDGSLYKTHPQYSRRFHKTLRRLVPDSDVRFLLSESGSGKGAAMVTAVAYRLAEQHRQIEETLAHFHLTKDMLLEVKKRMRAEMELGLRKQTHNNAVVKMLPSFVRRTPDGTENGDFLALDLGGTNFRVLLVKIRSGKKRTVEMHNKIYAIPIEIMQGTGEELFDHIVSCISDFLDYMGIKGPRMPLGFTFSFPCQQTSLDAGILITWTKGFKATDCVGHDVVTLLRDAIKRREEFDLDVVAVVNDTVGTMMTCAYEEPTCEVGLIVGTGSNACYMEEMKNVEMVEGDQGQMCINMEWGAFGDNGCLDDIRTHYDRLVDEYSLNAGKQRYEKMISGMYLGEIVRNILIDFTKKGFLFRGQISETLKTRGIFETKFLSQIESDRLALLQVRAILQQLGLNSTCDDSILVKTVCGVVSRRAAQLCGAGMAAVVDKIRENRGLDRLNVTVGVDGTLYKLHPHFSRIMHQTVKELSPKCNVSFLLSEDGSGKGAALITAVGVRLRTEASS

[1] = biological target: T5, exportin 1 (CRM1 homolog, yeast) (human, UniProt O14980 1-1071); test: Y2H; INT ID 424
T5 construct: also called XPO1; cbe_3621798

[2] = biological target: T6, phosphoglycerate mutase 1 (brain) (human, UniProt P18669 2-254); test: Y2H; INT ID 432
T6 construct: also called PGAM1; cbe_3820530
T6 sequence: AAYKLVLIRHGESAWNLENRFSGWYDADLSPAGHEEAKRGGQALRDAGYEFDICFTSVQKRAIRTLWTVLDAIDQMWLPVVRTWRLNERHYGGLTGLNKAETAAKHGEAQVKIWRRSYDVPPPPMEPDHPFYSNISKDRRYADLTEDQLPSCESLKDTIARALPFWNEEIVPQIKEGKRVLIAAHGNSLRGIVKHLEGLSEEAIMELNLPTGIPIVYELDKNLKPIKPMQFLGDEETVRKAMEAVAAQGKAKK

[3] = biological target: T7, Homo sapiens QUAKING isoform 5 (QUAKING) (human, UniProt Q96PU8 5-341); test: Y2H; INT ID 431
T7 construct: also called cbe_3810032
T7 sequence: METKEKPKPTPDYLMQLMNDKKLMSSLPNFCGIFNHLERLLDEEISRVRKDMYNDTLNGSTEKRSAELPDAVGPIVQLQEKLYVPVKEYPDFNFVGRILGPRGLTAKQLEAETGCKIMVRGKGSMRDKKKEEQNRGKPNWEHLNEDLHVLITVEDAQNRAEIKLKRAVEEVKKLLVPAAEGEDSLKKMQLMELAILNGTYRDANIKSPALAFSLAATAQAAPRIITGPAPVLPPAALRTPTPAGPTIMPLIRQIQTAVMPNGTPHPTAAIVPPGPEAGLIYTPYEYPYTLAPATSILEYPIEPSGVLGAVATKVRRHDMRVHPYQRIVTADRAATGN

[4] = biological target: T8, tissue factor pathway inhibitor (lipoprotein-associated coagulation inhibitor) (human, UniProt P10646 29-304); test: Y2H; INT ID 309
T8 construct: also called TFPI; cbe_3834015
T8 sequence: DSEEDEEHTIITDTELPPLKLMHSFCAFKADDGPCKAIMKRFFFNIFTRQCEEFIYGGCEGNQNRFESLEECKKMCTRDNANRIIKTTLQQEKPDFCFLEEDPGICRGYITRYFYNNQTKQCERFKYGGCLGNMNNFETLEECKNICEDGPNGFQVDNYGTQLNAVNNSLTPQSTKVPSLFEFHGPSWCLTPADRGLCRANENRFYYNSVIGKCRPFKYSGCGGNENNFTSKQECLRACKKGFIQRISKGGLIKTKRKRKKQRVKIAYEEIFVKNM

RBP4 = biological target: T9, RBP4 (human, UniProt P02753 19-201); test: Y2H; INT ID 433
T9 construct: also called cbe_4265947

[5] = biological target: T10, adaptor-related protein complex 2, mu 1 subunit (human, UniProt Q96CW1 1-435); test: Y2H; INT ID 430
T10 construct: also called AP2M1; cbe_3789063

[6] = biological target: B1; test: Y2H; INT ID 579
[7] = biological target: B1; test: Y2H; INT ID 582
[8] = biological target: B1; test: Y2H; INT ID 583
[9] = biological target: B1; test: Y2H; INT ID 581

T1 sequence (Q86UE8 whole entry, the tested form may be a part): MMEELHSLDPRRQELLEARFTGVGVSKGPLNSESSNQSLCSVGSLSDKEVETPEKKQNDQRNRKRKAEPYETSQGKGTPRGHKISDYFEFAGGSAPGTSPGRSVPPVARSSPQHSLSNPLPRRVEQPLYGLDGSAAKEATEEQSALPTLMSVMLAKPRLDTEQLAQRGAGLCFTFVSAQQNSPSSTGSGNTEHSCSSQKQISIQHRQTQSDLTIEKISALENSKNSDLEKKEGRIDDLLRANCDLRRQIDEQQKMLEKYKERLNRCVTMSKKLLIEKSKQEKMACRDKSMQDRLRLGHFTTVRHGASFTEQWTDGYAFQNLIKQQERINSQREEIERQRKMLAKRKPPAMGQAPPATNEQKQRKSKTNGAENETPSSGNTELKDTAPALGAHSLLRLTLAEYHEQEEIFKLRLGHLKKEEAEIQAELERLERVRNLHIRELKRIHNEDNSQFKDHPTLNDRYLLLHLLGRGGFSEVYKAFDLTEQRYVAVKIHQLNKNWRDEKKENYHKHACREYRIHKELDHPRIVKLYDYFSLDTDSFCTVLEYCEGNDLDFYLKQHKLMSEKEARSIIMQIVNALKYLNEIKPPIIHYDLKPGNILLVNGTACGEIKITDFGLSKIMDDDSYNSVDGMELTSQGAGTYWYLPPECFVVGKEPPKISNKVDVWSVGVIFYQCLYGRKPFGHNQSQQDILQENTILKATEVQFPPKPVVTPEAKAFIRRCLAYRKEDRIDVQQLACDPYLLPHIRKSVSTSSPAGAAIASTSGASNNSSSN
T5 sequence (O14980 whole entry): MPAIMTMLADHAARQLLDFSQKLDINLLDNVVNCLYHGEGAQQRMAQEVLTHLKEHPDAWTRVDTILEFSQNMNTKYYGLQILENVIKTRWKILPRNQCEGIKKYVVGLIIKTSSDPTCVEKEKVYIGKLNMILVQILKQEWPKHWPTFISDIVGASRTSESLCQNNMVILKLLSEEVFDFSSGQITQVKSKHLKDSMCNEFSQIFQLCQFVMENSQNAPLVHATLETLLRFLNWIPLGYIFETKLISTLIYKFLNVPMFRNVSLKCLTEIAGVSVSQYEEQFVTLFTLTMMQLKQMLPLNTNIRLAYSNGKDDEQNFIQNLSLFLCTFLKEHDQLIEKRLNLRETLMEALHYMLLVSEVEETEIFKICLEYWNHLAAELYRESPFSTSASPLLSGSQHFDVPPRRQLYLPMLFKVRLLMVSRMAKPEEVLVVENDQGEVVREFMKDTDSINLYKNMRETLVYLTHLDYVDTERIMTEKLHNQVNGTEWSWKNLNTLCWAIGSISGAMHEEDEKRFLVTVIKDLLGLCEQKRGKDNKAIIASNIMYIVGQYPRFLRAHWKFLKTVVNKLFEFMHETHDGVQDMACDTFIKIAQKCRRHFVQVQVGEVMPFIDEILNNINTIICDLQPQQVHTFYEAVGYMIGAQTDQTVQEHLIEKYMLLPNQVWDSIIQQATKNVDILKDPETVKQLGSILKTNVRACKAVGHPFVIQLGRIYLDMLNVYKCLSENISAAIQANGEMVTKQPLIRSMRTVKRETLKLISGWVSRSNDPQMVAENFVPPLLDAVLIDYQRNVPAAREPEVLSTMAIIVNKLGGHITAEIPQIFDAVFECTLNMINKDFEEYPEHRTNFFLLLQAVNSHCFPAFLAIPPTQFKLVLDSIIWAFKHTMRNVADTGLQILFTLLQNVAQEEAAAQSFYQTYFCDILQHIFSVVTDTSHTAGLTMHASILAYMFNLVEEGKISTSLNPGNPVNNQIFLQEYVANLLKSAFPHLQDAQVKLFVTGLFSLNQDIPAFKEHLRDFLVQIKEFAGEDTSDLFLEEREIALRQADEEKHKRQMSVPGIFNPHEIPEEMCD
T10 sequence (Q96CW1 whole entry, one chain of several): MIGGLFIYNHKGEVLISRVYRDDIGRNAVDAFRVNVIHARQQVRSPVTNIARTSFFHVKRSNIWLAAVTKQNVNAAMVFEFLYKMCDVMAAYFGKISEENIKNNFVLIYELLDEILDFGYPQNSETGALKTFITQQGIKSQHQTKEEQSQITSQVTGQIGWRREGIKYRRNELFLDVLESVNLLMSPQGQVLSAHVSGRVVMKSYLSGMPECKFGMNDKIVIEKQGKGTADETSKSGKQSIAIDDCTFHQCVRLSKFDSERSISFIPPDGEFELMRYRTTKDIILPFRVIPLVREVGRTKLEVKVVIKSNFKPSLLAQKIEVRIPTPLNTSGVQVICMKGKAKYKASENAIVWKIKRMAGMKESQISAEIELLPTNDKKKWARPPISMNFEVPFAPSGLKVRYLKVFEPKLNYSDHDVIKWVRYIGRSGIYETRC
T3 sequence (P07355 2-339 limits assumed): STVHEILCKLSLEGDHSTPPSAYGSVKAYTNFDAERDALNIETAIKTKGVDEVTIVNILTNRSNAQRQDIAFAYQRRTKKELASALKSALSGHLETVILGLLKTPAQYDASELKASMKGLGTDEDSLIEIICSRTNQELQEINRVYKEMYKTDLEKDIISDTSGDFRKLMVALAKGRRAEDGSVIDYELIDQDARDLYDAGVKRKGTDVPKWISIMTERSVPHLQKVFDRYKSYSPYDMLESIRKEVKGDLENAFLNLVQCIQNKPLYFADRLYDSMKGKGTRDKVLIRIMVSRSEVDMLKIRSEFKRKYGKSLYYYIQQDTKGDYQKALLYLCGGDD

Binder: B1
- binding result (TLK2): binds
- binding result (NDUFAB1): binds

B2: Human Papillomavirus 1a E6 (other)
chain: MATPIRTVRQLSESLCIPYIDVLLPCNFCNYFLSNAEKLLFDHFDLHLVWRDNLVFGCCQGCARTVSLLEFVLYYQESYEVPEIEEILDRPLLQIELRCVTCIKKLSVAEKLEVVSNGERVHRVRNRLKAKCSLCRLYAI
notes: also called HPV 1a E6; cbe_251919
- binding result (ANXA2): binds
- binding result (hexokinase 1): binds
- binding result [1]: binds

B3: Human Papillomavirus 1a E7 (other)
chain: MVGEMPALKDLVLQLEPSVLDLDLYCYEEVPPDDIEEELVSPQQPYAVVASCAYCEKLVRLTVLADHSAIRQLEELLLRSLNIVCPLCTLQRQ
notes: also called HPV 1a E7; cbe_251925
- binding result [2]: binds
- binding result [3]: binds
- binding result [4]: binds
- binding result (RBP4): binds
- binding result [5]: binds

B4: hypothetical protein FLJ13236 (other)
chain: MAKGLLVTYALWAVGGPAGLHHLYLGRDSHALLWMLTLGGGGLGWLWEFWKLPSFVAQANRAQGQRQSPRGVTPPLSPIRFAAQVIVGIYFGLVALISLSSMVNFYIVALPLAVGLGVLLVAAVGNQTSDFKNTLGSAFLTSPIFYGRPIAILPISVAASITAQRHRRYKALVASEPLSVRLYRLGLAYLAFTGPLAYSALCNTAATLSYVAETFGSFLNWFSFFPLLGRLMEFVLLLPYRIWRLLMGETGFNSSCFQEWAKLYEFVHSFQDEKRQLAYQVLGLSEGATNEEIHRSYQELVKVWHPDHNLDQTEEAQRHFLEIQAAYEVLSQPRKPWGSRR
notes: also called cbe_71919
- binding result [6]: binds

B5: TRAF interacting protein (other)
chain: MPIRALCTICSDFFDHSRDVAAIHCGHTFHLQCLIQSFETAPSRTCPQCRIQVGKRTIINKLFFDLAQEEENVLDREFLKNELDNVRAQLSQKDKEKRDSQVIIDTLRDTLEERNATVVSLQQALGKAEMLCSTLKKQMKYLEQQQDETKQAQEEAGRLRSKMKTMEQIELLLQSQLPEVEEMIRDMGVGQSAVEQLAVYCVSLKKEYENLKEARKASGEVADKLRKDLFSSRSKLQTVYSELDQAKLELKSAQKDLQSADKEIMSLKKKLTMLQETLNLPPVASETVDRLVLESPAPVEVNLKLRRPSFRDDIDLNATFDVDTPPARPSSSQHGYYEKLCLEKSHSPIQDVPKKICKGPRKESQLSLGGQSCAGEPDEELVGAFPIFVRNAILGQKQPKRPRSESSCSKDVVRTGFDGLGGRTKFIQPTDTVMIRPLPVKPKTKVKQRVRVKTVPSLFQAKLDTFLWS
notes: also called TRIP; cbe_3340492
- binding result [7]: binds

B6: TDE1 (other)
chain: MGAVLGVFSLASWVPCLCSGASCLLCSCCPNSKNSTVTRLIYAFILLLSTVVSYIMQRKEMETYLKKIPGFCEGGFKIHEADINADKDCDVLVGYKAVYRISFAMAIFFFVFSLLMFKVKTSKDLRAAVHNGFWFFKIAALIGIMVGSFYIPGGYFSSVWFVVGMIGAALFILIQLVLLVDFAHSWNESWVNRMEEGNPRLWYAALLSFTSAFYILSIICVGLLYTYYTKPDGCTENKFFISINLILCVVASIISIHPKIQEHQPRSGLLQSSLITLYTMYLTWSAMSNEPDRSCNPNLMSFITRITAPTLAPGNSTAVVPTPTPPSKSGSLLDSDNFIGLFVFVLCLLYSSIRTSTNSQVDKLTLSGSDSVILGDTTTSGASDEEDGQPRRAVDNEKEGVQYSYSLFHLMLCLASLYIMMTLTSWYSPDAKFQSMTSKWPAVWVKISSSWVCLLLYVWTLVAPLVLTSRDFS
notes: also called cbe_3926508
- binding result [8]: binds

B7: interferon regulatory factor 1 (other)
chain: MPITRMRMRPWLEMQINSNQIPGLIWINKEEMIFQIPWKHAAKHGWDINKDACLFRSWAIHTGRYKAGEKEPDPKTWKANFRCAMNSLPDIEEVKDQSRNKGSSAVRVYRMLPPLTKNQRKERKSKSSRDAKSKAKRKSCGDSSPDTFSDGLSSSTLPDDHSSYTVPGYMQDLEVEQALTPALSPCAVSSTLPDWHIPVEVVPDSTSDLYNFQVSPMPSTSEATTDEDEEGKLPEDIMKLLEQSEWQPTNVDGKGYLLNEPGVQPTSVYGDFSCKEEPEIDSPGGDIGLSLQRVFTDLKNMDATWLDSLLTPVRLPSIQAIPCAP
notes: also called IRF1; cbe_3001381
- binding result [9]: binds
